Source: US20220306762A1 (CRYSTAL BIOSCIENCE, published 2022)
Where two headings read alike, the source gives them in different places.

Key:
[1] = target: T1, His-tagged human CD38 (ACRO Biosystems cat #CD8-H5224) (human, UniProt P28907 43-300); assay: SPR (Carterra LSA), antibody captured by anti-human Fc, His-tagged CD38 injected
T1 construct: Bought His-tagged protein

[2] = target: T2, His-tagged cynomolgus monkey CD38 (ACRO Biosystems cat # CD8-05223 [sic]) (cynomolgus monkey, UniProt Q5VAN0 43-301); assay: as above
T2 construct: Bought His-tagged protein; also called cynomolgus CD38

[3] = target: T3, CD38 on Daudi target cells (UniProt P28907 1-300, limits assumed); assay: cell-based or functional assay
[4] = target: T3, CD38 on Daudi target cells; assay: cell-based or functional assay; remark: listed apart in the source
[5] = target: T1, His-tagged human CD38 (ACRO Biosystems …); assay: SPR (Carterra LSA), antibody captured by anti-human Fc, His-tagged CD38 injected; IgG by the head of Table 5
[6] = target: T2, His-tagged cynomolgus monkey CD38 (ACRO …); assay: as above
[7] = target: T4, His-tagged human CD38 (ACRO Biosystems CD8-H5224) (human, UniProt P28907 43-300); assay: SPR, IgG
T4 construct: bought protein; used for ELISA coating and as SPR analyte; not shown: His tag

[8] = target: T5, His-tagged mouse CD38 (ACRO Biosystems CD8-M5223) (mouse, UniProt P56528 45-304); assay: SPR, IgG
T5 construct: bought protein; used for ELISA coating and as SPR analyte; also called Murine; not shown: His tag
T5 sequence (looked up): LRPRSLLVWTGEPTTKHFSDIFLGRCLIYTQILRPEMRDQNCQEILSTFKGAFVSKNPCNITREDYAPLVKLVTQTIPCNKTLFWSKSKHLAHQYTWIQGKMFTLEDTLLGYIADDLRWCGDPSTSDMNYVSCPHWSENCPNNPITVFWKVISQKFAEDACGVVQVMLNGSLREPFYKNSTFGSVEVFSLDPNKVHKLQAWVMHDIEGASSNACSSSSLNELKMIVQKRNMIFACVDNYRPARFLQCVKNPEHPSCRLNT

[9] = target: T6, His-tagged cynomolgus monkey CD38 (ACRO Biosystems, CD8-05223 [sic]) (cynomolgus monkey, UniProt Q5VAN0 43-301); assay: SPR, IgG
T6 construct: bought protein; used for ELISA coating and as SPR analyte; not shown: His tag

B1: 40769p1.1.H10 (antibody, V domains shown)
VH: EVQLLESGGGLVQPGGSLRLSCAAFGFTFSDYEMNWVRQAPGKGLEWVSSISITGSWTGYADSVKGRFTISRDNSKNTLYLQMNNLRAEDTAVYYCANYKSYYGMDVWGQGTTVTVSS
VL: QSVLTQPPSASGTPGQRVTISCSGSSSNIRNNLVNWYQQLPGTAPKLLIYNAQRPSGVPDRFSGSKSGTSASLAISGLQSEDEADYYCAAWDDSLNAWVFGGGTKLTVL
notes: Human V regions from transgenic chicken, cloned as scFv-Fc; The variable domains can be found in the listing by the CDRs
**Q.** Which results are given for B1?
**A.** Kd [1]: 0.02 nM; Kd [2]: 3.08 nM; ADCC EC50 [3]: 20.7 ng/mL; Lowest Remaining Target % [3]: 54%; Max RLU [3]: 1.94e+06 RLU; PBMC ADCC EC50 [3]: 0.411 ng/mL

B2: 40769p2.1.F2 (antibody, V domains shown)
VH: EVQLLESGGGLVQPGGSLRLSCVASGFTFTNYEMNWVRQAPGKGLEWVSSISITGNYIYYADSVKGRFTISRDNSKNTLYLQMNDLRAEDTAVYYCANYKSYHGMDVWGQGTTVTVSS
VL: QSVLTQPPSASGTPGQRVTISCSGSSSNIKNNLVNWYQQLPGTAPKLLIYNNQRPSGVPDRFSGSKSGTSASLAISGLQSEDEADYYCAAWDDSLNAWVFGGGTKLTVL
notes: as for B1
**Q.** What does the source list for B2?
**A.** Lowest Remaining Target % [4]: 57%; Max RLU [4]: 1.72e+06 RLU; PBMC ADCC EC50 [4]: 0.293 ng/mL; Reporter cell ADCC EC50 [4]: 25.3 ng/mL; ADCC EC50 [3]: 25.3 ng/mL; Lowest Remaining Target % [3]: 57%; Max RLU [3]: 1.72e+06 RLU; PBMC ADCC EC50 [3]: 0.293 ng/mL; Kd [5]: 3.3 nM; Kd [6]: 7.05 nM

B3: 40769p2.2.E7 (antibody, V domains shown)
VH: EVQLLESGGGLVQPGGSLRLSCTGFGFTFTDARMSWVRQAPGKGLEWVADISSYGDNTYYADSVKGRFTISRDNSANTLYVQMNSLRAEDTAVYYCAKRMEREVMTIKLDYHAMDVWGQGTTVTVSS
VL: QSVLTQTPSVSGTPGQRVTISCSGIFNIRNYVSWYQQLPGTAPKLLIFKDDQRLSGVPDRFSGSGSGTSASLAISGLQSEDEADYYCAAWDIFLNVWVFGGGTKLTVL
notes: as for B1
**Q.** How did the “Lowest Remaining Target %” value [4] turn out when B3 was run?
**A.** 63%

**Q.** And the “Max RLU” value [4]?
**A.** 1.33e+06 RLU

**Q.** And the “PBMC ADCC EC50” value [4]?
**A.** 0.0245 ng/mL

**Q.** And the “Reporter cell ADCC EC50” value [4]?
**A.** ~13.2 ng/mL

**Q.** And the “ADCC EC50” value [3]?
**A.** ~13.2 ng/mL

**Q.** What about the “Lowest Remaining Target %” value [3] of the same binder?
**A.** 63%

**Q.** And the “Max RLU” value [3]?
**A.** 1.33e+06 RLU

**Q.** What about the “PBMC ADCC EC50” value [3] of the same binder?
**A.** 0.0245 ng/mL

**Q.** What about the Kd [5] of the same binder?
**A.** 0.47 nM

**Q.** What about the Kd [6] of the same binder?
**A.** 1.99 nM

B4: 40769p2.2.C8 (antibody, V domains shown)
VH: EVQLLESGGGLVPPGGSLRLSCAASGFTFTNAWMSWVRQAPGKGLEWVSTIRSKTDGGTPYSADSVKGRFTISRDDSKNTLYLQMNSLRAEDTAVYYCAKYDYNYMDVWGQGTTVTVSS
VL: QSVLTQPPSASGTPGQRVTISCSGTTSNIGRNYVHWYQQFPGTAPKLLIYRNSQRPSGVPDRFSGSKSGTSASLAISGLQSEDEADYYCAAWDDSLNGWLFGGGTKLTVL
notes: as for B1
**Q.** With B4 as the binder, how does the “Lowest Remaining Target %” value [4] read?
**A.** 58%

**Q.** What about the “Max RLU” value [4] of the same binder?
**A.** 2.18e+06 RLU

**Q.** What about the “PBMC ADCC EC50” value [4] of the same binder?
**A.** 0.167 ng/mL

**Q.** What about the “Reporter cell ADCC EC50” value [4] of the same binder?
**A.** ~9.74 ng/mL

**Q.** And the “ADCC EC50” value [3]?
**A.** ~9.74 ng/mL

**Q.** And the “Lowest Remaining Target %” value [3]?
**A.** 58%

**Q.** And the “Max RLU” value [3]?
**A.** 2.18e+06 RLU

**Q.** What about the “PBMC ADCC EC50” value [3] of the same binder?
**A.** 0.167 ng/mL

**Q.** And the Kd [5]?
**A.** 1.17 nM

**Q.** And the Kd [6]?
**A.** 3.64 nM

B5: 40769p2.2.A8 (antibody, V domains shown)
VH: EVQLLESGGGLVQPGGSLRLSCAASGFTFSDYWMNWVRQAPGKGLEWVSTISISGGIIYYADSVKGRFTISRDNSKNTLYLQMNSLRAEDTAVYYCAKDNWNDYYGMDVWGQGTTVTVSS
VL: QSVLTQPPSASGTPGQRVTISCSGSTSNIRDNYVYWYQQVPGTAPKLLIYKDDQRPSGVPDRFSGSKSGTSASLAISGLQSDDEADYYCATWDGSLNGRVFGGGTKLTVL
notes: as for B1
**Q.** Which results are given for B5?
**A.** Lowest Remaining Target % [4]: 56%; Max RLU [4]: 1.85e+06 RLU; PBMC ADCC EC50 [4]: 0.273 ng/mL; Reporter cell ADCC EC50 [4]: 9.82 ng/mL; ADCC EC50 [3]: 9.82 ng/mL; Lowest Remaining Target % [3]: 56%; Max RLU [3]: 1.85e+06 RLU; PBMC ADCC EC50 [3]: 0.273 ng/mL; Kd [5]: 2.58 nM; Kd [6]: 3.27 nM

B6: 40769p2.1.C4 (antibody, V domains shown)
VH: EVQLLESGGGLVHPGGSLRLSCAASGFTFSDYEMNWVRQAPGKGLEWVSSISITGDFTYYADSVKGRFTISRDNSKNTLYLQMNNLRAEDTAVYYCANYKSYYGLDVWGQGTTVTVSS
VL: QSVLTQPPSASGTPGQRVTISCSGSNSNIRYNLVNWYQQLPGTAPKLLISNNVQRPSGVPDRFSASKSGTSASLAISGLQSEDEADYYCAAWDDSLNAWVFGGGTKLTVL
notes: as for B1
**Q.** For B6, which “Lowest Remaining Target %” value [4] is on record?
**A.** 63%

**Q.** And the “Max RLU” value [4]?
**A.** 1.44e+06 RLU

**Q.** What about the “PBMC ADCC EC50” value [4] of the same binder?
**A.** 0.227 ng/mL

**Q.** What about the “Reporter cell ADCC EC50” value [4] of the same binder?
**A.** ~12.2 ng/mL

**Q.** What about the “ADCC EC50” value [3] of the same binder?
**A.** ~12.2 ng/mL

**Q.** And the “Lowest Remaining Target %” value [3]?
**A.** 63%

**Q.** What about the “Max RLU” value [3] of the same binder?
**A.** 1.44e+06 RLU

**Q.** What about the “PBMC ADCC EC50” value [3] of the same binder?
**A.** 0.227 ng/mL

**Q.** And the Kd [5]?
**A.** 1.46 nM

**Q.** And the Kd [6]?
**A.** 1.12 nM

B7: 40769p2.1.G4 IgG (antibody, V domains shown)
VH: EVQLLESGGGLVQPGGSLRLSCAASGFTFTSHDMNWVRQAPGKGLEWVSTITTGGNTYYADSVKGRFTISRDNSKNTLYLQMTSLRAEDTAVYYCTKHYSMDVWGQGTTVTVSS
VL: QSVLTQPPSASGTPGQRVTISCSGSTSNVVFNAVYWYQQLPGTAPKLLFYGKSQRPSGVPDRFSGSKSGTSASLAISGLQSEDEADYYCAAWDDTLNGWVFGGGTKLTVL
notes: IgG
**Q.** Which results are given for B7?
**A.** Kd [7]: 35.5 nM; Kd [8]: 106 nM; Kd [9]: 73.8 nM

B8: 40769p2.2.A5 IgG (antibody, V domains shown)
VH: EVQLLESGGGLIQPGGSLRLSCTASGFDFSSYGMHWVRQAPGKGLEWVGIISDTGGTTYYGDSVKGRFTISRDNSKSTLYLQMNSLRAEDTALYYCASYIMDVWGQGTTVTVSS
VL: QSVLTQPPSASGTPGQRVTISCSGSNSNVGDNAVYWYQQLPGTAPKLLFYGTNRRPSGVPDRFSGSKSGTSASLAISGLQSEDEADYYCAAWDDSLNAWVFGGGTKLTVL
notes: IgG
**Q.** Which Kd [7] does the source give for B8 here?
**A.** 18.8 nM

**Q.** And the Kd [8]?
**A.** 1160 nM

**Q.** What about the Kd [9] of the same binder?
**A.** 221 nM
